Measurements published in US20140274782A1, “AFFINITY REAGENTS AND METHODS FOR DETECTION, PURIFICATION, AND PROTEOMIC ANALYSIS OF METHYLATED PROTEINS” (The Board of Trustees of the Leland Stanford Junior …, priority 2013, published 2014).

Legend:
3×MBT domain of L3MBTL1 = assay: Triple SILAC pull-down, 3xMBT/3xMBTD355N ratio (cytoplasmic, nuclear and chromatin fractions of 293T cells); format: binding, human; conditions: SILAC ratio 3xMBT vs 3xMBTD355N pull-down, 293T cells, all values in log base 2;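 also: proteins quantified with MaxQuant, requiring at least two unique peptides and quantification in both label directions, normalized to the mean of proteins from a digested loading control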
Description: For stable isotope labeling by amino acids in cell culture (SILAC) experiments HEK 293T cells were grown for at least six doublings in DMEM for SILAC supplemented with 10% dialyzed fetal bovine serum (FBS), 230 mg/L L-proline and either 100 mg/L each of L-lysine and L-arginine (“light” medium), D4-L-lysine and ^13C6-L-arginine (“medium” media), or ^13C6^15N2-L-lysine and ^13C6^15N4-L-arginine (Thermo Scientific). Heavy methyl labeling used DMEM without L-Methionine or L-Cysteine supplemented with D3^13C-L-Methionine (Sigma), L-Cysteine (Sigma) and 10% dialyzed FBS.
(§1) For UNC0638 treatments cells were treated for 24 hours with UNC0638 at 2.5 μM or DMSO vehicle control. One experiment treated cells in light media with UNC0638, the other treated cells in heavy media. Both experiments included cells in medium media treated with DMSO for negative control pull-down with 3×MBTD355N.
UNC0638 treatment experiments used a Q-Exactive mass spectrometer (ThermoFisher Scientific). A 25 cm HPLC column with 3 μm Reliasil (Orochem) was used to separate peptides over a 4 hour gradient from 0 to 75% acetonitrile. Ions were generated using a custom nanospray source flowing at 250 nL/minute. Mass spectrometry settings were 70,000 MS1 resolution, data dependent selection of up to 20 precursor ions per cycle, dynamic exclusion of 30 seconds and isolation window of 2 m/z. The nuclear fraction from the experiment using UNC0638 on cells in heavy media was additionally analyzed by 2D HPLC-MS/MS as described earlier.
Peptides were identified and quantified using MaxQuant version 1.2.2.5 (Cox and Mann, supra) with the following changes to default settings: mono- and di-methylation of lysine, and oxidation of methionine, and N-terminal acetylation as variable modifications, disabled “I=L”, up to three modifications per peptide, one missed cleavage, maximum charge of 5. Protein and peptide FDR were set to 1%, and proteins were filtered post-hoc for at least two unique peptides. Proteins were excluded from an experiment if they were not quantified in both labeling directions. Because FDR is unreliable for small numbers of peptides the modification site FDR was set to 10% and all methylated peptides were manually verified. […] Quantitative protein data was normalized to the mean value among proteins identified by analyzing 50 ng of digested loading control.
(§2) For UNC0638 experiments the treated vs. untreated ratio was determined by subtracting the value from 3×MBTD355N prior to dividing values from the light and heavy channels. Only proteins showing a two-fold signal to background ratio (3×MBT/3×MBTD355N) were evaluated as potential G9a/GLP substrates.

G9a and GLP = molecular target: T1, G9a and GLP (Homo sapiens, UniProt Q96KQ7+Q9H9B1); assay: Triple SILAC pull-down after UNC0638 treatment of 293T cells, DMSO/UNC0638 ratio of protein captured by 3×MBT; format: cell-based; set-up: endogenous in cells; host or cells: HEK 293T; conditions: all values in log base 2;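 also: mass spectrometry (Q-Exactive) SILAC quantitation, DMSO/UNC0638 ratio computed after subtracting 3×MBTD355N mutant pull-down background, only proteins with at least twofold 3×MBT over mutant signal considered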
T1 sequence (Q96KQ7 2-1210 limits assumed): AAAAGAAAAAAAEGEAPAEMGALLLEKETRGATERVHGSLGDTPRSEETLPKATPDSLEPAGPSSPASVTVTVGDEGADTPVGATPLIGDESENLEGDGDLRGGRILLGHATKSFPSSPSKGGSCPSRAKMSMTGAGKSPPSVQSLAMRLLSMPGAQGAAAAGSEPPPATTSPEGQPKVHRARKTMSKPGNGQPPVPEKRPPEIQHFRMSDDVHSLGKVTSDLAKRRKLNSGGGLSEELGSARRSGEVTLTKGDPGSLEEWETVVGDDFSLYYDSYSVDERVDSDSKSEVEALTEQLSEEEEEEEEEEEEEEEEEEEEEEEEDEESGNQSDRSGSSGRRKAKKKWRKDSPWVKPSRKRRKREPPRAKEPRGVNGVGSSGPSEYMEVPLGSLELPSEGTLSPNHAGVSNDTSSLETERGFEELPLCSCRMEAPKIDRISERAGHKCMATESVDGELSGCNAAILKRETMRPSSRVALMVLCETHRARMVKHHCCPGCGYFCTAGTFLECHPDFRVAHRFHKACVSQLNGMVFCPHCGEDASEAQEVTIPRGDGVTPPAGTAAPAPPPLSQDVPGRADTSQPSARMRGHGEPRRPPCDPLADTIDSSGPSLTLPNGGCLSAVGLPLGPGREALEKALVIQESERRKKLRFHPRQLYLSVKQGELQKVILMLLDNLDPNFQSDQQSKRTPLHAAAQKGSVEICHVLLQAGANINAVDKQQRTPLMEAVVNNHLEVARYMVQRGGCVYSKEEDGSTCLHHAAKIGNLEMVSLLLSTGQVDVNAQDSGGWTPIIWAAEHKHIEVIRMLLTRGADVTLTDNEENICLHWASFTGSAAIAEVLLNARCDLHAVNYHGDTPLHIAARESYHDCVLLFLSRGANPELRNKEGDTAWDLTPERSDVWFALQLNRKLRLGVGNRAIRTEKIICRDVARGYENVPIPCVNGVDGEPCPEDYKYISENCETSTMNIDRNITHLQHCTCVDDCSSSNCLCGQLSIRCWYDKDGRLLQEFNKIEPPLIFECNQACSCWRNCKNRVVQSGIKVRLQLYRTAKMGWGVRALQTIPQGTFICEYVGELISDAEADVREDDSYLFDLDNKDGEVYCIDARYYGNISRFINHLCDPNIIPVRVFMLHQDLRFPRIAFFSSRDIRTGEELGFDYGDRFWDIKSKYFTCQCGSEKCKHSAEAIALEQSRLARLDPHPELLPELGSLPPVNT
T1 sequence (Q9H9B1 2-1298 limits assumed): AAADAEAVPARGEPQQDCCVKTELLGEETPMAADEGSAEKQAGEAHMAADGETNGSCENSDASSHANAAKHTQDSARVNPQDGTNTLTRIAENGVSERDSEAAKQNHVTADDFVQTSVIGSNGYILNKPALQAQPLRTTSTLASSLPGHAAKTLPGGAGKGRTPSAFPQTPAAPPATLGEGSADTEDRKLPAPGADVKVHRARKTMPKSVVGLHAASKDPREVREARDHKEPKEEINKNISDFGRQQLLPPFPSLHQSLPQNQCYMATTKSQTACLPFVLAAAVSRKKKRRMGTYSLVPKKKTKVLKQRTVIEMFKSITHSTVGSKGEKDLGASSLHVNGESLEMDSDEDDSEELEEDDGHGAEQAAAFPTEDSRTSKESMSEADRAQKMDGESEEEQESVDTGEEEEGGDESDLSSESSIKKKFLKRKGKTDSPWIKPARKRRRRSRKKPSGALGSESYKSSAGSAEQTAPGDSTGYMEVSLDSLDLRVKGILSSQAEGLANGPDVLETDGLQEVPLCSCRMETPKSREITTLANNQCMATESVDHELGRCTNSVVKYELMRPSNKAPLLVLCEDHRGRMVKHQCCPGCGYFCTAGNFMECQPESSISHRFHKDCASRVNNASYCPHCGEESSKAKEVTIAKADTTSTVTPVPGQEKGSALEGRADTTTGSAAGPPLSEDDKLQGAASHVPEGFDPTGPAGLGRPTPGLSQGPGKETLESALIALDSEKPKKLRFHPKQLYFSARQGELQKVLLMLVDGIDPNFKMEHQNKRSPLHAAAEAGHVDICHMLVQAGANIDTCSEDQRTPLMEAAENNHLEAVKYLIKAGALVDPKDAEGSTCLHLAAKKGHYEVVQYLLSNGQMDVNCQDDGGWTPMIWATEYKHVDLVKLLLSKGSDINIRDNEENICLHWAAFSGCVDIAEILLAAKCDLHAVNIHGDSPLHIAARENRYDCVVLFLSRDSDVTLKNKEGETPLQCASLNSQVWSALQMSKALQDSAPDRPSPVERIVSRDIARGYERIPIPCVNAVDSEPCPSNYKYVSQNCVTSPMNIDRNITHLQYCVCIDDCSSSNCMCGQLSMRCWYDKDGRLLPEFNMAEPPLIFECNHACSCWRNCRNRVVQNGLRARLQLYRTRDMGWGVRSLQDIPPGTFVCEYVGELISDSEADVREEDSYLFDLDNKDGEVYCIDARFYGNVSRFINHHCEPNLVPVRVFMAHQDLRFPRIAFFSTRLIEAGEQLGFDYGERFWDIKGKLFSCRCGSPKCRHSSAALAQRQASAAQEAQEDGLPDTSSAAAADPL
Description: as §1
UNC0638 treatment experiments used a Q-Exactive mass spectrometer (ThermoFisher Scientific). A 25 cm HPLC column with 3 μm Reliasil (Orochem) was used to separate peptides over a 4 hour gradient from 0 to 75% acetonitrile. Ions were generated using a custom nanospray source flowing at 250 nL/minute. Mass spectrometry settings were 70,000 MS1 resolution, data dependent selection of up to 20 precursor ions per cycle, dynamic exclusion of 30 seconds and isolation window of 2 m/z.
as §2

Relative to UNC0638 UNC Heavy (G9a and GLP; SILAC ratio DMSO relative to UNC0638, pull-down with 3xMBT, UNC0638 in heavy SILAC media): −0.10 log base 2
Relative to UNC0638 UNC Light (G9a and GLP; SILAC ratio DMSO relative to UNC0638, pull-down with 3xMBT, UNC0638 in light SILAC media): −0.07 log base 2
Relative to UNC0638 Average (G9a and GLP; average of UNC Light and UNC Heavy experiments): −0.08 log base 2
B1: YTHDC2 (protein, UniProt Q9H6S0 1-1430, looked up)
3'-5' RNA helicase YTHDC2: MSRPSSVSPRQPAPGGGGGGGPSPCGPGGGGRAKGLKDIRIDEEVKIAVNIALERFRYGDQREMEFPSSLTSTERAFIHRLSQSLGLVSKSKGKGANRYLTVKKKDGSETAHAMMTCNLTHNTKHAVRSLIQRFPVTNKERTELLPKTERGNVFAVEAENREMSKTSGRLNNGIPQIPVKRGESEFDSFRQSLPVFEKQEEIVKIIKENKVVLIVGETGSGKTTQIPQFLLDDCFKNGIPCRIFCTQPRRLAAIAVAERVAAERRERIGQTIGYQIRLESRVSPKTLLTFCTNGVLLRTLMAGDSTLSTVTHVIVDEVHERDRFSDFLLTKLRDLLQKHPTLKLILSSAALDVNLFIRYFGSCPVIYIQGRPFEVKEMFLEDILRTTGYTNKEMLKYKKEKQQEEKQQTTLTEWYSAQENSFKPESQRQRTVLNVTDEYDLLDDGGDAVFSQLTEKDVNCLEPWLIKEMDACLSDIWLHKDIDAFAQVFHLILTENVSVDYRHSETSATALMVAAGRGFASQVEQLISMGANVHSKASNGWMALDWAKHFGQTEIVDLLESYSATLEFGNLDESSLVQTNGSDLSAEDRELLKAYHHSFDDEKVDLDLIMHLLYNICHSCDAGAVLIFLPGYDEIVGLRDRILFDDKRFADSTHRYQVFMLHSNMQTSDQKKVLKNPPAGVRKIILSTNIAETSITVNDVVFVIDSGKVKEKSFDALNFVTMLKMVWISKASAIQRKGRAGRCRPGICFRLFSRLRFQNMLEFQTPELLRMPLQELCLHTKLLAPVNCPIADFLMKAPEPPPALIVRNAVQMLKTIDAMDTWEDLTELGYHLADLPVEPHLGKMVLCAVVLKCLDPILTIACTLAYRDPFVLPTQASQKRAAMLCRKRFTAGAFSDHMALLRAFQAWQKARSDGWERAFCEKNFLSQATMEIIIGMRTQLLGQLRASGFVRARGGGDIRDVNTNSENWAVVKAALVAGMYPNLVHVDRENLVLTGPKEKKVRFHPASVLSQPQYKKIPPANGQAAAIKALPTDWLIYDEMTRAHRIANIRCCSAVTPVTILVFCGPARLASNALQEPSSFRVDGIPNDSSDSEMEDKTTANLAALKLDEWLHFTLEPEAASLLLQLRQKWHSLFLRRMRAPSKPWSQVDEATIRAIIAVLSTEEQSAGLQQPSGIGQRPRPMSSEELPLASSWRSNNSRKSSADTEFSDECTTAERVLMKSPSPALHPPQKYKDRGILHPKRGTEDRSDQSSLKSTDSSSYPSPCASPSPPSSGKGSKSPSPRPNMPVRYFIMKSSNLRNLEISQQKGIWSTTPSNERKLNRAFWESSIVYLVFSVQGSGHFQGFSRMSSEIGREKSQDWGSAGLGGVFKVEWIRKESLPFQFAHHLLNPWNDNKKVQISRDGQELEPLVGEQLLQLWERLPLGEKNTTD
3xMBT/D355N UNC Heavy (3×MBT domain of L3MBTL1; experiment with UNC0638 in heavy SILAC media): 1.74 log base 2
3xMBT/D355N UNC Light (3×MBT domain of L3MBTL1; experiment with UNC0638 in light SILAC media): 2.87 log base 2
